Assay results taken from PMC2645378 (Virology Journal, 2008).
Several values for one entry are separate records, joined by “and”; a condition that tells them apart may be missing. Identical values can stand only once.

Molecular target: the molecule itself

B1: FLAG-tagged soluble Lassa virus glycoprotein 1 (sGP1-FLAG) (natural protein)
chain: TSLYKGVYELQTLELNMETLNMTMPLSCTKNNSHHYIMVGNETGLELTLTNTSIINHKFCNLSDAHKKNLYDHALMSIISTFHLSIPNFNQYEAMSCDFNGGKISVQYNLSHSYAGDAANHCGTVANGVLQTFMRMAWGGSYIALDSGRGNWDCIMTSYQYLIIQNTTWEDHCQFSRPSPIGYLGLLSQRTRDIYISRRLL
- stoichiometry N: 2 and 3
